Experimental data published in article PMC7379511.

Target: feline interleukin-31 (fIL-31) displayed on the yeast surface (pETconNK_fIL-31) (feline)
Assay: flow cytometry on cells

In the case of “soluble feline oncostatin M receptor extracellular domain, Fc fusion (fOSMR-ECD)”, the Kd is reported as 10.3 nM, the percent decrease of the binding of biotinylated fIL31RA-1FNIII is reported as 65% and the percent decrease of the binding of biotinylated fOSMR-ECD (itself) is reported as 97%.
